The target in the test is Toll-like receptor 2 (TLR2) purified protein (UniProt O60603). In words: BLI. In general terms: BLI is a label-free optical method that tracks binding on a fibre tip over time.
Sequence of UniProt O60603 (O60603 21-588): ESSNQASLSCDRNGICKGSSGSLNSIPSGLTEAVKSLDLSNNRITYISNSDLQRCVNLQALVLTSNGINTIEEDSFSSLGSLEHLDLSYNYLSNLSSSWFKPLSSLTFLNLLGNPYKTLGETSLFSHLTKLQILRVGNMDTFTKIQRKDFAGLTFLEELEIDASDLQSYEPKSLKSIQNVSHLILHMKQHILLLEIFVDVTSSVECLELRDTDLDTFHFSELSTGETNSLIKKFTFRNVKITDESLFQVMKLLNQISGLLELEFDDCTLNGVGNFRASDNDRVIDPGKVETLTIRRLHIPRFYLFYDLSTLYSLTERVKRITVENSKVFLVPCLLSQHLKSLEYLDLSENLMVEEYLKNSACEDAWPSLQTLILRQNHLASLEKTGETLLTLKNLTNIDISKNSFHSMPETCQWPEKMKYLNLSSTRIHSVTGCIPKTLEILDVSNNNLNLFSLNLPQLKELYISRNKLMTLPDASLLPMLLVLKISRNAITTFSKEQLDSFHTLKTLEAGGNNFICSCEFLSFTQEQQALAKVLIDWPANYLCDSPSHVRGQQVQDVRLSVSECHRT

The Kd is the concentration at which binding is half-saturated. Read a high Kd as a looser complex. Regarding PAM3CSK4 (peptide), the equilibrium dissociation constant (Kd) came out at 1670 nM.

These data come from doi:10.1101/2022.01.15.476311.
